This is an account of results in US20240317847A1 (Bayer, published 2024).

Broadly, the Kd is a measure of binding affinity in units of concentration. A word on the IC50: it is the point on the concentration scale where inhibition reaches its midpoint.

In test [1] the target is T1, murine IL-11 (Invigate, e.g., lot #C210819-09) (mouse, UniProt P47873 22-199).
T1 construct: Bought protein; biotinylated where captured on streptavidin plates; also called mIL-11; mIL11
T1 sequence: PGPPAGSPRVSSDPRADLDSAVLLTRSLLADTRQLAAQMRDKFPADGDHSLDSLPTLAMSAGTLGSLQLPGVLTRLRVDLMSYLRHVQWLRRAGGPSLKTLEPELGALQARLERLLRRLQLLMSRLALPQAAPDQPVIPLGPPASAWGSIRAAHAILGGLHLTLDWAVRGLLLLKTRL
Kind of test: SPR, Biacore T200, 25 C; antibody captured via anti-mouse Fc, IL-11 as analyte, 1:1 Langmuir fit. As to the method:
(§1) Antibodies were captured via anti-mouse Fc IgGs (“Mouse antibody capture kit, Order No. BR100383, Cytiva) covalently amine coupled to a Series S CM5 sensor chip (Cytiva). The amine coupling was carried out according to the manufacturer's instructions using 1-ethyl-3-(3-dimethylaminopropyl) carbodiimide hydrochloride (EDC), N-hydroxysuccinimide (NHS) and ethanolamine HCl, pH 8.5 (“Amine Coupling Kit” BR-1000-50, Cytiva.). Human IL-11 (Invigate, e.g., lot #C121021-19), and murine IL-11 (Invigate, e.g., lot #C210819-09) were used as analytes. […] Based on that experiment an IL-11 concentration range was chosen to optimally determine kinetics and affinity of anti-IL-11 antibodies in multicycle kinetics mode. The sensor surface was regenerated with glycine pH 1.7 after each antigen injection. Obtained sensorgrams were double referenced (subtraction of reference flow cell signal and buffer injection) and were fitted to a 1:1 Langmuir binding model to derive kinetic data using the Biacore T200 Evaluation software or the Biacore Insight software.
On the technique in general: Surface plasmon resonance follows binding to a sensor surface in real time, without labels.

Test [2] deals with T2, human IL-11 (Invigate, e.g., lot #C121021-19) (human, UniProt P20809 22-199).
T2 construct: Bought protein; also called hIL-11; hIL11
T2 sequence: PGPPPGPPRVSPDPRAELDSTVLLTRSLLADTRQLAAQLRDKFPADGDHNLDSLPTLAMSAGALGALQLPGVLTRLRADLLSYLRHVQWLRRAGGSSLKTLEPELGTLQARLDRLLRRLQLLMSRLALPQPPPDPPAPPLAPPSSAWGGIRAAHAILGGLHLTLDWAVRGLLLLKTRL
The description is as above. As to the method:
as §1

Test [3] addresses T1, murine IL-11 (Invigate, e.g., lot …). As to the kind of experiment: Di-complex ELISA: biotinylated murine IL-11 on streptavidin plate, antibody titrated against 2 nM canine IL11RA-human-Fc (competitor). As to the method:
In the Di-complex ELISA format anti IL-11 antibodies are tested for the ability to interfere with the formation of complexes consisting of immobilized murine IL-11 (Invigate, e.g., lot #C210819-09) or human IL-11 (Invigate, e.g., lot #C121021-19), and murine IL11RA-Fc fusion proteins or canine IL11RA-human-Fc fusion protein (FIG. 17a, b).
The assay is performed using streptavidin coated microtiter plates (Greiner bio-one, #781997). In a first step, 10 nM biotinylated mouse IL-11 (Invigate, Germany, e.g., lot #C210819-09) or human IL-11 (Invigate, Germany, e.g., lot #C121021-19) is coated in 25 μl PBS on the plate at 4° C. overnight. Next day, the plate is washed three times with 50 μl PBST and then blocked with 50 μl SmartBlock (Candor, #113125) for one hour at room temperature (RT). After additional three washes with PBST, 25 μl of a mixture of the murine anti IL-11 antibody and recombinant canine IL11RA-Fc fusion protein (Sino Biological, #70078-D02H) in PBS-T, 10% Smartblock are added simultaneously to the plate and incubated for one hour at RT. […] After three additional washes with PBS-T, 25 μl anti-human-POD (Sigma, #A0170) in PBS-T, 10% Smartblock is added and incubated for 1 hour at RT. After a final three washes with PBS-T, 25 μl AmplexRed (Fisher Scientific, A12222), 1/1000 in PBS, 0,003% H₂O₂, is added as substrate and incubated for 15 min at RT in the dark. Then, the fluorescence is measured with a plate reader at 535/595 nm. Signals from dose responses were used to calculate IC50 values (GraphPad Prism). Efficacy was calculated as [(signal measured at lowest antibody concentration−signal measured at the highest antibody concentration)×100] divided by (signal measured at lowest antibody concentration−signal measured in the absence of IL11Ra).

Test [4] shares this target. Kind of test: Tri-complex ELISA: antibody titrated against 8 nM murine IL-11, 2 nM murine gp130-human-Fc and 2 nM murine IL11RA-murine-Fc. The method, then: (§2) In the Tri-complex ELISA format IL-11 antibodies are tested for their ability to inhibit the formation of a complex consisting of murine or human gp130-Fc fusion protein, with murine or human IL-11, and a murine IL11RA-Fc fusion protein. The assay format was adapted according to FIG. 18 (a, b), depending on whether murine or human IL-11 IgG antibodies were tested.
(§3) The assay was performed using High Binding microtiter plates (Greiner, #781077). In a first step, 25 μl of goat anti human IgG (Sigma, #12136), diluted 1:1000 in coating buffer (Candor, #121125) was coated on the plate at 4° C. overnight. Next day, the plate was washed one time with 50 μl PBST and then blocked with 50 μl SmartBlock (Candor, #113125) for one hour at room temperature (RT). […] After three additional washes of the coated and blocked microtiter plate with PBS-T, 25 μl of each mixture were added and the assay plate was incubated for one hour at room temperature. After three additional washes, anti-mouse-gp130 biotinylated antibody (R&D, #BAF468) or anti-human gp130 biotinylated antibody (R&D, #BAF228), both 1:1000 in 10% SmartBlock PBS-T, was added and incubated for 1 hour at RT. After three additional washes, a Streptavidin-Peroxidase conjugate (Sigma, #S5512) 1:1000 in SmartBlock PBS-T was added and incubated for one hour at room temperature. After a final three washes, AmplexRed (Fisher Scientific, A12222), 1/1000 in PBS, 0,003% H₂O₂, was added as substrate and incubated for 15 min at RT in the dark. Then, the fluorescence was measured with a plate reader at 535/595 nm. Signals from dose responses were used to calculate IC50 values using GraphPad Prism software.
(In general: An ELISA detects its analyte on a solid surface through an enzyme-linked reagent.)

Test [5] deals with T2, human IL-11 (Invigate, e.g., lot …). Kind of test: Tri-complex ELISA: antibody titrated against 8 nM human IL-11, 2 nM human gp130-human-Fc and 2 nM murine IL11RA-murine-Fc. As to the method: as §2, §3

B1: TPP-18087 (antibody, mouse IgG1, V domains shown)
VH: EVQLLESGGGLVQPGGSLRLSCAASGFTFSHYDMNWLRQAPGKGLEWVGVISYDGSNKFYADFVKGRFTISRDNSKNTLYLQMNSLRAEDTAVYYCARTPGSHFDYWGQGTLVTVSS
VL: QSVLTQPPSASGTPGQRVTISCSGSSSNIGNNAVNWYQQLPGTAPKLLIYYDDLLPSGVPDRFSGSKSGTSASLAISGLRSEDEADYYCSAWDDSLNGVVFGGGTKLTVLG
notes: mIgG1, Lambda
As for B1, the Kd in test [1] amounted to 42 nM; in test [2] it was 53 nM. Besides, the “Efficacy (%)” value was found to be 13.4% in test [3], 5.5% in test [4] and 60.4% in test [5]. Further, the IC50 in test [5] came out at 55 nM.

B2: TPP-19528 (antibody, mouse IgG1, V domains shown)
VH: EVQLLESGGGLVQPGGSLRLSCAASGFTFSIYAMSWVRQAPGKGLEWVSSISDTGDRTYYADSVKGRFTISRDNSKNTLYLQMNSLRAEDTAVYYCARSNWGSLDYWGQGTLVTVSS
VL: QSVLTQPPSASGTPGQRVTISCSGSSSNIGSNYVYWYQQLPGTAPKLLIYYDDLLPSGVPDRFSGSKSGTSASLAISGLRSEDEADYYCAAWDDSLSGRVFGGGTKLTVLG
notes: mIgG1, Lambda
Turning to B2, the Kd was determined as 9 nM in test [1] and 11 nM in test [2]. In addition, the “Efficacy (%)” value in test [3] was determined as 79%; in test [4], 76.6%; in test [5], 57%. In addition, the IC50 in test [3] came out at 24 nM; in test [4], 14 nM; in test [5], 20 nM.
